From patent US20030165841, “Use of phosphorothiolate polynucleotides in ligating nucleic acids” (published 2003) come the findings set out here.

In series [1] the target is T1, Topo65 (human topoisomerase I fragment, residues 215-765) (Homo sapiens, UniProt P11387 SEQ:22-572).
T1 chain: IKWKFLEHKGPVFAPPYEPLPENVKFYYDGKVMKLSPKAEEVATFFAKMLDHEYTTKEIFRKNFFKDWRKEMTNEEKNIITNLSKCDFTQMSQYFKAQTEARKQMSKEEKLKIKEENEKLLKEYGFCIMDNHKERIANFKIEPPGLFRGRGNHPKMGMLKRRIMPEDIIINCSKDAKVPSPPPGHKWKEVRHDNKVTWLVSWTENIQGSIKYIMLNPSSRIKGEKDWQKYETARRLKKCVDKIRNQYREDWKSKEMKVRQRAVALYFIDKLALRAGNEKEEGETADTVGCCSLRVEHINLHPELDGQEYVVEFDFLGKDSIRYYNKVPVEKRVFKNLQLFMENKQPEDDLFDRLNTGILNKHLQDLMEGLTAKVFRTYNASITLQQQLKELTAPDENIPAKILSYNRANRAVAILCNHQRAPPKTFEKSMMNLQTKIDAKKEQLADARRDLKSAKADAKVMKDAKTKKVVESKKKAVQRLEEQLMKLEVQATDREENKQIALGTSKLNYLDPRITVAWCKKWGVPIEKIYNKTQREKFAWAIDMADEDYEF
The series is described as follows: no gel shift with single strand alone. How it is done:
(§1) The duplex substrates shown in FIGS. 3A and 3B were reacted overnight at room temperature with Topo65. The reaction mixtures contained 3 μM Topo65, 10 μM duplex substrate, 10 mM Tris-HCl, pH 7.5, 100 mM KCl, 10 mM MgCl2, 1 mM EDTA, and 2 mM DTT. The reaction products were adjusted to 1 M NaCl or NOT and then analyzed by 10% SDS-PAGE and Coomassie Blue staining (lanes 4-7). FIG. 4 is a photograph of the stained gel.
This experiment was repeated after removal of the DMT from the AS oligonucleotides by acid treatment, and an identical gel-shift was observed on reaction of “DMT off” oligonucleotide complexes with Topo65. However, no gel shift was observed if duplex generated from ratios of single strand oligonucleotides alone, for example, TCRIBamS, TCRIBamAS, TCRIBstBS or TCRIBstBAS alone.
On the technique in general: Mobility shift assays separate free from complexed probe on a gel.

The target in series [2] is T1, Topo65 (human topoisomerase I fragment, …). The series can be described thus: covalent complex by SDS-PAGE shift; enzyme reacts quantitatively. How it is done:
as §1
As a control, Topo65 was allowed to react with a duplex 22-mer suicide substrate. The suicide substrate contains a centrally positioned 5′-bridging phosphorothiolate.

Take AATTCGCGGCCGCAAAAAGACTTGATC (ssDNA, 5'-bridging phosphorothiolate 4 bases from 3' end) [TCRIBamS alone]: in series [1], the binding result is listed as “no binding”. Still for that read-out and setting: the same measure for CGAAGTCTTTTTGCGGCCGCG (ssDNA) [TCRIBstBAS alone]: “no binding”.

B1: suicide 22-mer duplex (dsDNA)
DNA 1: AAAAAGACTTAGAAAAATTTTT
DNA 2: AAAAATTTTTCTAAGTCTTTTT
modifications: 5'-bridging phosphorothiolate between GACTT and AGAAAA of top strand
Regarding B1, the binding result in series [2] is given as “binds”. On to GATCAAGTCTTTTTGCGGCCGCG (ssDNA) [TCRIBamAS alone], for which the binding result in series [1] was “no binding”. Still for that read-out and setting: the same measure for AATTCGCGGCCGCAAAAAGACTTCG (ssDNA, 5'-bridging phosphorothiolate 2 bases from 3' end) [TCRIBstBS alone]: “no binding”.
